Assay results from publication PMC5651683 (The Biochemical journal, 2017).

Target: His6-Munc18a (rat, UniProt P61765 1-594)
Assay: pull-down

His6-Munc18a, sequence (P61765 whole entry): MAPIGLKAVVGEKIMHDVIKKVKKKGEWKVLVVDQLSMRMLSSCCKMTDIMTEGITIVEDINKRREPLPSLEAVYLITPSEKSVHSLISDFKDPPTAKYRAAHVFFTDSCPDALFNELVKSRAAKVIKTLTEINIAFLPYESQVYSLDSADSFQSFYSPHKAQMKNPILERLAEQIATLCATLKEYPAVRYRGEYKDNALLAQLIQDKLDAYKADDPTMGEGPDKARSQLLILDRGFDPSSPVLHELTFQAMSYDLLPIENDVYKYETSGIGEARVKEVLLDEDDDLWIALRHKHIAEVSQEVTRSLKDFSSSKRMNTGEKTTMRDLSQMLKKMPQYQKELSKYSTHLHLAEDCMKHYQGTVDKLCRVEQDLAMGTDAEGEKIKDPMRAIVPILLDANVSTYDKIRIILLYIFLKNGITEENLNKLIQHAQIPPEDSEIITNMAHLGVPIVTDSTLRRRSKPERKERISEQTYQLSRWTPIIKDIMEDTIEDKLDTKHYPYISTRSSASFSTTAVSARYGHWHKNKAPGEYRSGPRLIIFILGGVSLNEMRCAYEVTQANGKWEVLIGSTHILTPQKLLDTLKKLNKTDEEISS

B1: syntaxin3, full-length, liposome-anchored (natural protein, rat, UniProt Q08849 1-289, looked up)
chain: MKDRLEQLKAKQLTQDDDTDEVEIAIDNTAFMDEFFSEIEETRLNIDKISEHVEEAKKLYSIILSAPIPEPKTKDDLEQLTTEIKKRANNVRNKLKSMEKHIEEDEVRSSADLRIRKSQHSVLSRKFVEVMTKYNEAQVDFRERSKGRIQRQLEITGKKTTDEELEEMLESGNPAIFTSGIIDSQISKQALSEIEGRHKDIVRLESSIKELHDMFMDIAMLVENQGEMLDNIELNVMHTVDHVEKARDETKRAMKYQGQARKKLIIIIVIVVVLLGILALIIGLSVGLK
binding result: binds
